As usually defined, the Kd is the concentration at which binding is half-saturated. Read a high Kd as a looser complex. What is called stoichiometry N is a count of units in the complex or per binding partner.

Test [1] addresses GST-OsGAP1 (rice (Oryza sativa)) (UniProt Q6YWF1). In words: ITC; MicroCal ITC200; 400–500 µM (His)6-OsYchF1, its truncated derivatives or (His)6-tag in the syringe titrated into 20–30 µM GST-OsGAP1 or GST-tag in the chamber; 20 mM Tris-HCl pH 7.5, 20 mM NaCl, 1 mM DTT; 25 °C. (In ITC the heat of successive injections is recorded.)
The target of a further test is T1, GST-OsGAP1 (rice (Oryza sativa), UniProt Q6YWF1 1-165).
T1 construct: also called GST-tagged OsGAP1; source: E. coli BL21 (DE3) pLysS, purified; not shown: GST, N-terminal, kept
T1 sequence (looked up): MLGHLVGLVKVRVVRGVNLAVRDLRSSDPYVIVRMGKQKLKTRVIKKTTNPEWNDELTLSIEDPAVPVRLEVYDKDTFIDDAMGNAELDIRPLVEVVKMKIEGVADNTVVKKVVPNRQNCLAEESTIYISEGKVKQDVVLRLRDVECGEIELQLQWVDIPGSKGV
Described as above. The following applies: both partners purified.

In test [1], “(His)6-OsYchF1 (No TGS domain) (from UniProt Q6Z1J6 1-302) (domain or fragment)” had a dissociation constant (Kd) of 98.7 µM, a dH of -0.7 kcal/mol and a stoichiometry N of 0.2.
Take “full-length (His)6-OsYchF1 (from UniProt Q6Z1J6 1-394) (natural protein)”: in test [1], the Kd was found to be 103 µM and the stoichiometry N worked out at 0.6.

B1: (His)6-OsYchF1 (G domain) (domain or fragment, rice (Oryza sativa), UniProt Q6Z1J6 1-128, looked up)
chain: MPPKASKKDAAPAERPILGRFSSHLKIGIVGLPNVGKSTFFNIVTKLSIPAENFPFCTIDPNEARVYVPDERFDWLCQLYKPKSEVSAYLEINDIAGLVRGAHAGEGLGNAFLSHIRAVDGIFHVLRA
notes: OsYchF1, rice, G domain, aa 1-128; also called (His)6-G; source: E. coli BL21 (DE3) pLysS, purified; not shown: His6, N-terminal, kept; thioredoxin (Trx), N-terminal, kept; S-tag, N-terminal, kept
With B1, in the test with GST-OsGAP1, the Kd was determined as 11.9 ± 6.7 µM, the dH was -2 ± 1.4 kcal/mol and the “stoichiometry N” value came out at 0.5 ± 0.7.

B2: (His)6-OsYchF1 (TGS domain) (domain or fragment, rice (Oryza sativa), UniProt Q6Z1J6 303-394, looked up)
chain: HLIYFFTAGPDEVKCWQIRRQTKAPQAAGTIHTDFERGFICAEVMKFDDLKELGSESAVKAAGKYRQEGKTYVVQDGDIIFFKFNVSGGGKK
notes: OsYchF1, rice, TGS domain, aa 303-394; also called (His)6-TGS; source: E. coli BL21 (DE3) pLysS, purified; not shown: His6, N-terminal, kept; thioredoxin (Trx), N-terminal, kept; S-tag, N-terminal, kept
Take B2: in the test with GST-OsGAP1, the Kd amounted to 5.1 ± 2.3 µM, the dH was -3.4 ± 1.1 kcal/mol and the “stoichiometry N” value is 0.6 ± 0.1.

The values above are taken from publication PMC12480156, “From biophysical interaction to structural modeling: bi-terminal G and TGS domains drive rice OsYchF1-OsGAP1 complex formation” (Botanical Studies, 2025).
